According to the supplement of paper PMC10065799, “High-throughput profiling of sequence recognition by tyrosine kinases and SH2 domains using bacterial peptide display” (eLife, 2023):

Legend:
Grb2 SH2 = Grb2 SH2 (UniProt P62993); test: SH2 binding enrichment of the phosphorylated peptide, bacterial display (enrichment ratio); higher = better substrate or ligand; peptides without Tyr show the background
SHP2-C SH2 = test: as above
c-Src SH2 = test: as above
c-Abl (mouse) = test: phosphorylation enrichment, bacterial display (enrichment ratio); higher = better substrate or ligand; peptides without Tyr show the background
AncSZ = test: as above
Jak2 = Jak2 (UniProt O60674); test: as above
Sequence of Jak2 (O60674 whole entry, looked up): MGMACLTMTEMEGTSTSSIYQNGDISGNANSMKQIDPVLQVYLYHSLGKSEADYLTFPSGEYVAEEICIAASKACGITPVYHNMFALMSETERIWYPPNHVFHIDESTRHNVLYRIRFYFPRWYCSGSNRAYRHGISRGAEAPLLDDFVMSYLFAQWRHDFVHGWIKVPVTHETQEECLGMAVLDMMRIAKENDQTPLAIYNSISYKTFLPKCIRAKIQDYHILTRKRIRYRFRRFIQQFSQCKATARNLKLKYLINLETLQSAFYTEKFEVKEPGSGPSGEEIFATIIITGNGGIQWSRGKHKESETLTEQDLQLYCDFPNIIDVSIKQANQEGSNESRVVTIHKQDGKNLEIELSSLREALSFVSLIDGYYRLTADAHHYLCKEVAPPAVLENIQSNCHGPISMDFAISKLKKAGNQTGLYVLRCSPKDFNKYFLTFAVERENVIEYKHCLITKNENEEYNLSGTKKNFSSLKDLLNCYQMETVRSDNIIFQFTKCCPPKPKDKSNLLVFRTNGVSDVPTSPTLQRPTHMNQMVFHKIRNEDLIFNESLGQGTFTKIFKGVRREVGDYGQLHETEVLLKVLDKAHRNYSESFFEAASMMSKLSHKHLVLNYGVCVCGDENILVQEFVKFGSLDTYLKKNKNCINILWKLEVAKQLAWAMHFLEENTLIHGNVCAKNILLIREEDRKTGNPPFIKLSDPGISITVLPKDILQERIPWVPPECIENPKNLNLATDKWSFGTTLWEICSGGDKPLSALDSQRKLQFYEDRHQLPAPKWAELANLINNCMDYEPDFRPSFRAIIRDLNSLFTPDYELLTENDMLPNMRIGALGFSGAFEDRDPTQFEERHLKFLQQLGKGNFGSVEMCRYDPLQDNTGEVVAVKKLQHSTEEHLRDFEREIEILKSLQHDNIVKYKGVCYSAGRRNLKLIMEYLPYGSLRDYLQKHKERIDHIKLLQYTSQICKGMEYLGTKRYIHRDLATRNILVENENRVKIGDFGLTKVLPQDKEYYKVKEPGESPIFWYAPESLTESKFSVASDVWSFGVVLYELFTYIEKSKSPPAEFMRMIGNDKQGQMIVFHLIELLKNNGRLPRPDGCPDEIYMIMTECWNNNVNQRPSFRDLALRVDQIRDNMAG

FGFR3 = FGFR3 (UniProt P22607); test: as above
EPHB1 = EPHB1 (UniProt P54762); test: as above
Sequence of EPHB1 (P54762 whole entry, looked up): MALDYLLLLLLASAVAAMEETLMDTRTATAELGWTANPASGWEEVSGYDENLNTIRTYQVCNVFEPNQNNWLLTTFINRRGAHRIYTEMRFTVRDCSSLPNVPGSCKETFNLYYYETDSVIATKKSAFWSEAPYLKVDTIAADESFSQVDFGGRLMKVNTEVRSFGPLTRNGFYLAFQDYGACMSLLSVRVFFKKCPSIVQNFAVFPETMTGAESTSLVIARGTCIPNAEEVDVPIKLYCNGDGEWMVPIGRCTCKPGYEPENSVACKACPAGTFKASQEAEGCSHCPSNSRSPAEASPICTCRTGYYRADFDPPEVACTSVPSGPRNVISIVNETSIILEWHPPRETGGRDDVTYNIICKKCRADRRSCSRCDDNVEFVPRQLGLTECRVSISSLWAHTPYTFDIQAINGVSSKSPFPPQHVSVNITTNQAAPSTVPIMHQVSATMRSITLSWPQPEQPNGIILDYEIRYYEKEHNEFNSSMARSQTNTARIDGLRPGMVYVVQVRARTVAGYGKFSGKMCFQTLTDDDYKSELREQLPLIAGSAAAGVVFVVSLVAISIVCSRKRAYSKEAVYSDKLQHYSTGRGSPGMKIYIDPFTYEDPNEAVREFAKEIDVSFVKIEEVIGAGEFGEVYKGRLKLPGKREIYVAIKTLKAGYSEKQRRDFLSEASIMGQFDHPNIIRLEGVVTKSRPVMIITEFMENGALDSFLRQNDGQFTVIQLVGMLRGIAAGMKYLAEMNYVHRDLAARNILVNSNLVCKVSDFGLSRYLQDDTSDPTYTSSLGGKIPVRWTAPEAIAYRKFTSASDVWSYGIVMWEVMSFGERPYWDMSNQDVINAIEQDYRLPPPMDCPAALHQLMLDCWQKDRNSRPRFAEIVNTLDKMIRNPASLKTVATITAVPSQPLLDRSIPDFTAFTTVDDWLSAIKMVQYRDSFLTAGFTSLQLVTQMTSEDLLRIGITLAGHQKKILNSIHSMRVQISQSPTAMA

Fer (mouse) = test: as above
Hck = Hck (UniProt P08631); test: as above
Fyn = Fyn (UniProt P06241); test: as above
MERTK = MERTK (UniProt Q12866); test: as above
Sequence of MERTK (Q12866 whole entry, looked up): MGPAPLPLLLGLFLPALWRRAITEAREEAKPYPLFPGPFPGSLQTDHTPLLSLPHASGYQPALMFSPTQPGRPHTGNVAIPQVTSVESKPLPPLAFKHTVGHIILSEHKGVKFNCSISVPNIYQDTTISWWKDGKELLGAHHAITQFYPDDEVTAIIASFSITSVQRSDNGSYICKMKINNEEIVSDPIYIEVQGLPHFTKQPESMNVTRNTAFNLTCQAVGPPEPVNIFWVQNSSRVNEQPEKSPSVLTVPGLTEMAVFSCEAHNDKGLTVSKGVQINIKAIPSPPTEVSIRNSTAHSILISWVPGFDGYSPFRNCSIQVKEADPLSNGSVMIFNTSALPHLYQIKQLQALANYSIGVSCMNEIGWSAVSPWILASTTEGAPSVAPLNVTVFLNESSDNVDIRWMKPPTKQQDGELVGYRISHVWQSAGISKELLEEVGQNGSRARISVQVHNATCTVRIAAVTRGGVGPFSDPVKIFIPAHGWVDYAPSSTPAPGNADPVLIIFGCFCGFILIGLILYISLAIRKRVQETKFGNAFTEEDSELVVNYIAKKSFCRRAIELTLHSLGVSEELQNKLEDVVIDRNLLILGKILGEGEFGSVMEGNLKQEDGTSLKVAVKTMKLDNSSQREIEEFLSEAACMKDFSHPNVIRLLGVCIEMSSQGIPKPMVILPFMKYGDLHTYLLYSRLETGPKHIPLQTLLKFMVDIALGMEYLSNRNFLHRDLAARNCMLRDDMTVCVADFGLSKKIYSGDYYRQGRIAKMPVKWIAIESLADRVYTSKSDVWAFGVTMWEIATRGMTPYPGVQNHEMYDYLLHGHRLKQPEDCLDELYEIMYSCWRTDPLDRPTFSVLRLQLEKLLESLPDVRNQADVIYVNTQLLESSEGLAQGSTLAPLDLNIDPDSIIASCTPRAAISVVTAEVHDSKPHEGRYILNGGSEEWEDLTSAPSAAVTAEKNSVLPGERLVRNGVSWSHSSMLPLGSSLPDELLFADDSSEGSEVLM

FGFR1 = FGFR1 (UniProt P11362); test: as above
Sequence of FGFR1 (P11362 whole entry, looked up): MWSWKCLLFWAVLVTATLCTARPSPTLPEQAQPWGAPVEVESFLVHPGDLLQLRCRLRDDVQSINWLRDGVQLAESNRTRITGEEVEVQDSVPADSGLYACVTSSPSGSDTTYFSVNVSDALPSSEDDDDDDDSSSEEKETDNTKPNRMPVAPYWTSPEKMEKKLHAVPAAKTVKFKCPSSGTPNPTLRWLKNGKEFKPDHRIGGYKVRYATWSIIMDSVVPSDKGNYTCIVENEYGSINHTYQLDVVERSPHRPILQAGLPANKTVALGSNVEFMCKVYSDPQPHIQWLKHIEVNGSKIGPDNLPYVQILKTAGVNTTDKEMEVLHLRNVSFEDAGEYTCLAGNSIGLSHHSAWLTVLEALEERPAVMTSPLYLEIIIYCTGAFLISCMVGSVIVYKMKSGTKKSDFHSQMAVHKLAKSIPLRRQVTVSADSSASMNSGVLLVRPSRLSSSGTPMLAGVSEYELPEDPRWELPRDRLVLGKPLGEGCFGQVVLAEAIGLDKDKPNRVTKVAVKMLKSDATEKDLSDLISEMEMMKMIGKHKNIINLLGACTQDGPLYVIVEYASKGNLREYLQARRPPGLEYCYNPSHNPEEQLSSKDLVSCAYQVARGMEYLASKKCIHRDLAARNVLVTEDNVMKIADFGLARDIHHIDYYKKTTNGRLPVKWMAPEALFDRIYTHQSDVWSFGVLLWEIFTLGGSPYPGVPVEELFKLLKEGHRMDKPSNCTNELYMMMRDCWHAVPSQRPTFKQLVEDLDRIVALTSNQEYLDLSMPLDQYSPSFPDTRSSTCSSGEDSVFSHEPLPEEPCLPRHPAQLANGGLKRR

EPHB2 = EPHB2 (UniProt P29323); test: as above
Fes = Fes (UniProt P07332); test: as above
Sequence of Fes (P07332 whole entry, looked up): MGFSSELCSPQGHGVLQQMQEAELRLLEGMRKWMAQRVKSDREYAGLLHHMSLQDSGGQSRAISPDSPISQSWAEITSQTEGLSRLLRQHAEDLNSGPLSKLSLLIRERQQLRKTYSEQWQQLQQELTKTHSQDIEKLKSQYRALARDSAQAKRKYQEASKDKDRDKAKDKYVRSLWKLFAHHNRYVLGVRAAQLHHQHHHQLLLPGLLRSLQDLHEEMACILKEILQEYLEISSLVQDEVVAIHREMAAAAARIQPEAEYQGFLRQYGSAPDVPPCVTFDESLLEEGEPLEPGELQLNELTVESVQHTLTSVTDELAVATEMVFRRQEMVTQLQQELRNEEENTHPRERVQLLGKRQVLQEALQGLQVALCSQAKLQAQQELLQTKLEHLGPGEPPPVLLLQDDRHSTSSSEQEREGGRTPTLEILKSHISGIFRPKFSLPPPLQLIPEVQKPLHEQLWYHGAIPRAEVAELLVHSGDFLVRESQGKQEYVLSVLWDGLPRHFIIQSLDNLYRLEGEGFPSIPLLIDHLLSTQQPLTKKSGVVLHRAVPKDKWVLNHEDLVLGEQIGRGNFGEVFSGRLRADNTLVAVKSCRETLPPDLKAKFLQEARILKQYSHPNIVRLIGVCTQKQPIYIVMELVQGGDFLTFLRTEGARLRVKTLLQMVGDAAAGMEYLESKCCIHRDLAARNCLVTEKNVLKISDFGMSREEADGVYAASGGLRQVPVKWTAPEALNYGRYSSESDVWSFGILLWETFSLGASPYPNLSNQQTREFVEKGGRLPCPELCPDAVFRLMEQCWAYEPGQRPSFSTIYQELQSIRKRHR

c-Src = test: as above
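Wherever SH2 binding enrichment of the phosphorylated peptide, bacterial display is given: peptide library displayed on the E. coli surface as eCPX fusions, selected cells deep-sequenced, score is each peptide's frequency after selection divided by its frequency in the input.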
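Wherever phosphorylation enrichment, bacterial display is given: 11-residue human phosphosite peptides and single-mutation variants displayed on the E. coli surface, counted by deep sequencing, each peptide's frequency after selection divided by its frequency in the unselected input library; frequency after pTyr selection over input frequency; kinase dosed for 20-30% of maximal phosphorylation in three min.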

Sequence of Grb2 SH2 (P62993 whole entry, looked up): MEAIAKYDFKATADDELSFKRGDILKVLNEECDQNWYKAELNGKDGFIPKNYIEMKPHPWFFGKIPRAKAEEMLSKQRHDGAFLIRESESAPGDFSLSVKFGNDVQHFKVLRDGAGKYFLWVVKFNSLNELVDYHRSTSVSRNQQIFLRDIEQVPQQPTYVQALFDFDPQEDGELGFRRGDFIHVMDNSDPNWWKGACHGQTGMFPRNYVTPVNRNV

Sequence	SH2 binding enrichment (Grb2 SH2)	SH2 binding enrichment (SHP2-C SH2)	SH2 binding enrichment (c-Src SH2)	phosphorylation enrichment (c-Abl (mouse))	phosphorylation enrichment (AncSZ)	phosphorylation enrichment (Jak2)	phosphorylation enrichment (FGFR3)	phosphorylation enrichment (EPHB1)	phosphorylation enrichment (Fer (mouse))	phosphorylation enrichment (Hck)	phosphorylation enrichment (Fyn)	phosphorylation enrichment (MERTK)	phosphorylation enrichment (FGFR1)	phosphorylation enrichment (EPHB2)	phosphorylation enrichment (Fes)	phosphorylation enrichment (c-Src)
ILDEAYVMAGV [ERBB2_Y772]	0.935	0.651	0.494	0.577	1.11	0.832	0.642	0.439	0.448	0.532	0.555	0.441	0.622	0.487	0.916	0.694
GYSRHYEDGYP [CTNND1_Y217]	0.818	0.676	1.46	0.67	0.691	0.623	0.529	0.383	0.374	0.383	0.382	0.524	0.391	0.465	0.722	0.488
YPRTGYSVPYG [TGM1_Y370_L366P]	1.01	0.854	5.88	0.681	0.714	0.925	0.545	0.418	0.383	0.453	0.459	0.55	0.525	0.519	0.78	0.406
PCNLIYFGEHP [TRPV6_Y201]	1.48	1.15	0.976	2.89	3.19	3.44	1.68	1.17	1.07	2.08	3.66	2.21	1.76	0.745	2.64	12.2
YHLLPYTIRAM [PARS2_Y93_V95I]	0.994	1.14	6.08	25.4	1.14	7.24	13.8	1.17	0.464	9.37	3.83	10.9	16.6	0.873	0.83	5.16
VYYGSYSRPYG [NKAP_Y104]	1.64	1.81	2.61	8.1	1.19	2.87	2.01	1.7	0.835	8.09	9.54	6.16	2.77	2.66	0.756	7.11
FKGIVYAVSSD [DCX_Y70]	0.809	0.825	0.535	0.629	0.86	0.802	0.505	0.416	0.428	0.391	0.484	0.371	0.424	0.49	0.916	0.49
FQGGTYSKAST [FGG_Y380_YF]	0.787	1.14	0.657	0.446	0.448	0.478	0.413	0.377	0.325	0.308	0.372	0.46	0.495	0.452	0.544	0.41
SDRNLYSKNLV [CFAP58_Y501]	0.823	0.811	0.423	0.467	0.626	0.491	0.363	0.268	1.03	0.555	0.411	0.748	0.325	0.38	0.516	0.435
RFLRGYHQDAF [HLA-A_Y137_R138H_YF]	0.935	0.614	0.53	1.33	1.66	0.815	0.628	0.591	0.569	0.553	0.569	0.645	0.578	0.622	0.886	0.81
RAMPVYKEAEH [TP63_Y231_K233E]	0.98	0.58	0.508	0.665	1.02	0.832	0.663	0.561	0.602	0.664	0.511	0.503	0.763	0.67	1.01	0.563
EKGSNYCLCRT [ASIC2_Y357_D354G]	0.947	0.806	0.645	0.56	0.732	0.572	0.497	0.47	0.378	0.349	0.504	0.458	0.469	0.45	0.607	0.393
HILRVYGGVLP [PCNX4_Y999]	0.913	1.01	0.635	0.874	1.07	0.765	1	0.591	0.532	1.01	0.699	0.444	0.755	0.676	1.12	0.588
PESIMYPKFTT [NTRK3_Y744_R745P]	0.748	0.594	0.596	0.595	0.66	0.717	0.794	0.513	0.549	0.739	0.707	0.579	0.656	0.586	1.09	0.397
